Data published in the nanobody polyreactivity screen of Harvey et al. (2022).

Experiment: yeast display, Sf9 membrane polyspecificity reagent, FACS + sequencing; frameworks hold sequencing errors
Outline: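 Galactose-induced (36–48 hours) yeast carrying a synthetic nanobody display library were exposed to 10% biotinylated, detergent-solubilized Sf9 membrane reagent at 4 °C for 1 hour. FACS followed streptavidin microbead enrichment, using low and high (top ~1%) gates for expression (anti-HA) and reagent binding (streptavidin). Colony PCR, MiSeq 2 × 250 sequencing and CDR-length filtering followed. Labels for polyreactivity reflect the gate of origin.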

Sequence	polyreactivity (PSR sort gate)
QVQLVESGGGLVQAGGSLRLSCAASGSIFWGNAMGWYRQAPGKERELVAAIRRGTSTYYADSVKGRFTISRDNAKNTVYLQMNSLKPEDTAVYYCAAEGWTTPTPTSDDNQWWYDYWGQGTQVTVSS	high polyreactivity
QVQHVESGGGLVQAGGSLRLSCAASGFTSIMYAMGWYRQAPGKERDLVASISISDGSTYYADSVKGRFTISRDNAKNTVYLQMNILKPEDTAVYYCAADVYVWYTYSYDYWGQGTKVTVSS	low polyreactivity
QVQLVESGGGLVQAGGSLRLSCAASGRIFLYNGMGWYRQAPGKERELVAGITTGGNTNYADSVKGRFTISRDNAKNTVYLQMNSLKPEDTAVYYCAAEVIVYGWSPDYDYWGQGTQVTVSS	low polyreactivity
QVQLEESGGGLVQAGGSLRLSCAASGSTFSTYSMAWYRHAPGKERELVARITRSDTGTYYADSVKGRFTISRDYAKNTVYLQLNSLKPEDTAVYDCAADGWYDDSGWDYGYDYWGQGTQVTVSS	low polyreactivity
QVQLVESGGGLVQAGGSLRLSCAASGIFVDNAMGWYRQAPGKERELVAAISGSGGSTFYADSVKGRFTISRDNAKNTVYLQLNSLKPEDTAVYYCNADVYPHPAFFVGHDYWGHGTQVTVSS	low polyreactivity
QVQLVESGGGIVQAGGSLRLSCAASGRTFKWNAMGWYRQAPGKEREFVATISYSGGSTYYADSVKGRFTISRDIAKNSVYLQMKSLKPEDSAVYYCAAGSPYRFWHRFDYWGQGTQVTVSS	high polyreactivity
QVQLVESGGGLVQAGGSLRLSCAASGSTFKRYAMGWYRQAHGKERELVAAISRRGGSTYYADSVKGRFTISRDNAKNTVYLQMNSLKPEDTAVYYCAARGTGNIYDYWGQGTQVTVSS	high polyreactivity
QVQLQESGGGLVQAGGSLRLSCAASDYIFPYKPKGWYRQAPGKEREFVATIATGGSTNYADSVKGRFTISRDNAKNTVYLQMNSLKPEDTAVYYCAVYGGPAGYLTYRGQGTQVTVSS	high polyreactivity
QVQLVESGGGLVQAGGSLRLSCAASGSTFVYYAMGWYRQAPGKERELVARITRGGGSTNYADSLKARFTISRDNAKNTVYLHMNSLKPEDTAVYYCAKRRKVTYDYWGQGTQVSVSS	high polyreactivity
QVQLVESGGGLVQAGGSLRLRCAASGSTFGLYTMGWYSQAPGKERELVASISIVGSTYYADSVKGLFTSSRDNAKNTVYFQMNSLKPVDTAVYYCAADSEIIYTVRNRTYPWIMDYWGQGTQVTVSS	low polyreactivity
QVQLVESGGGLVQAGGSLRLSCAASGFTFPKYAMGWYRQSPGKERELVAGITNGGSTFYADSVKGRFTISRDNAKNTVYLQMNSLKPEDPAVYYCAASGRLSLGGRFYDLGLSYDYWGQGTQVTVSS	low polyreactivity
QVQLVESGGGLVQAGGSLRLSCAASGRIFPGNAMGWYRQSPGKERELVAGISFSGGRTYYADSVKGRFSISRDNAKNTVYLQMNSLKPEDTAVYYCATKYQQHWWRYDYWGQGTQVTVSS	low polyreactivity
QVQLVESGGGLVQAGGSLRLSCPASGITFVPNAMGWYRQAPGKERELVARIDNGVSTNYADSVKGRFTISRDNAKNTVYLQMNSLKPEDTAVYYCAKDGYWGDWDLDYWGQGTQVTVSS	low polyreactivity
QVQLVESGGGLVQAGGSLRLICAASGSIFHIYMGWYRQAPGKEMEVVASISYRGGTTYYADSVKGRFTISRDNAKNSVYFQMNSLKPEDTAVYYCNVDRYFYHYGRYGHMDYWGQATQVTVSS	low polyreactivity
QVQLVESGGGLVQAGGSLRLSCAASGFIFYEYAMGWYRQAPGKERELVARITRSDGSTYYADSVKGRFTISRDNAKNTVYFQMNSLKPEDTAVYYCNVRRAYYRRGPYYSTYYYWGQGTQVTVSS	high polyreactivity
QVQLVESGGGLVQAGGSLRLSCAASGRTFEYYAMGWYRPAPGKERELVAAITYSGDSTYYADSVKGRFTISRDNAKNTVYLQMNSLKPEDTAVYYCAADWSSLKDDYWGQGTQVTVSS	low polyreactivity
QVQLVESGGGLVQSGDSLRLSCAASGIILLSYAMGWYIHAPGKERELVAAITSGGGTNYADSVKGRFTISRDNAKNTVYLQMNSLKPEDTAVYYCAVGAYAGLYYYWGQGTQVTVSS	low polyreactivity
QVQLVESGGGLDQAGGSLRLSCAASGFTSGYNVLGWYRQAPGTARELVAAISWRGTSTYYADSVKGRFTISRDNAKNTVYLQMNSLKPEDTAVYYCAARQRWYWRGYDYWGQGTQVTVSS	high polyreactivity
QVQLQESGGGLVQAGGSLLSCAASGTISYYREMGWYRQAPGKERELVAGIGVGTITYYADSVKGRFTISRDNAKNTVYLQMNSLKPEDTAVYYCAALIDGNDSHAYWGQGTQVTVSS	low polyreactivity
QDQLLESGGGLVQAGGSLRLSCAASGRTFRYYTMGWYRQAPGKEREFVAAISSTGGTYYADSVKGRFTISRDNAKNTVYLQMNSLKPEDTAVYYCAATFIQFVVNVELYDYDYWGQGTQVTVSS	low polyreactivity
QVQLVESGGGLVQAGGSLRLSCAASGSTFEVYVMGWYRQAPGKERELVAGISKRGGRTYYADSVKGRFTISRDTEKNTVYLQLNSLKPEDTAVYYCAADAPGHEYYYWGQGTQVTVSS	high polyreactivity
QDQLVESGGGLVQAGGSLRLSCAASGSIFDDYAMGWYRQAPRKERELVASISWSGGRTYYADSVKGRFTISRDNAKNTVYLQMNSLKPEDTAVYYCAAALWTGYSWGQGTQVTVSS	low polyreactivity

Sequence	polyreactivity (PSR sort gate)
QDQLVESGGGLVQAGGSLRLSCAASGRTFFGYAMGWYRQAPGKERELVAAITTSGGSTYYADSVKGRFTISRDNAKNTVYLQMNSLKPEDTAVYYCAARAYYGYYYWGQGTQVTVSS	low polyreactivity
QVQLVESGGGLVQAGGSLRLSCAASGRTFRKKAMGWYRRAPGKERELVAAISASGTSTYYADSVKGRFTNSRDNAKISVYLQMISLKPEDTAVYYCAARSYGIYDYWGQGSQVTVSS	high polyreactivity
QVQLVESGGGLVQAGGSLRLSCAASGSIFATYAMGWYRQAPGKERELVADISWNGGSTYYADSVKGRFTISRDNAKNTVYLQMNSLKPEDTAVYYCAVGYWGRFGFRGYGYWGQGTQVTVSS	low polyreactivity
QVQLVESGGGLVQAGGSLRLSCAASGSIFRWYAMGWYRQAPGKERELVAGISSTGGSTYYADSVKGRFTISRDNAKNTVYLQMNSLKPEDTAVYYCAVVSYPSAFRRYNYWGQGTQVTVSS	high polyreactivity
QVQLVESGGGLVQAGGSLRLSCAASGRTFWYYTMGWYRQAPGKERELVAAISSGGRTNYADSVKGRFTISRDNAKNTVYLQMNSLKPEYTAVYYCATSRYYKYVERDYWGQGTQVTVSS	high polyreactivity
QVQLVESGGGLVQAGGSLRLSCAASGFNYYTMGWYRQAPGKERELVAAINYSGGRTYYADSVKGRFTISRDNAKNTVYLQMNSLKPEDTAVYYCNTARSPYDHRPERSYDYWGLGTQVTVSS	high polyreactivity
QVQQLESGGGLVQAGGSLRLSSAASGTIFRISDMGSYRQAPGTEREFVAAITYGANTYYADSGKGRFTISRDNAKNTVYRQMNSLKPDDTAVYDCAVPPVKESILDYWGQGTQVTVSR	low polyreactivity
QVQLVESGGGLVQAGGSLRLSCAASGRIFVVYAMGWYRQAPGKERELVAAIRSGGSTNYADSVKGRFTISRDNAKNTVYLQMNSLKPEDTAVYYCADCKWHSAYDYWGQGTQVTVSS	high polyreactivity
QVQLVESGGGLVQAGGRLRLSCAASGSIFRWYAMGLYRQAPGKERELVAAITSGGSTYYADSVKGRFTISRDNAKNCVYLQMNSLKPEDTAVYYCNAKTYYPPFGYWGQGTQVTVSS	low polyreactivity
QVQLGESGGGLVQAGGSLRLSCAASGSIFGGNAMGWYRQAPGKERELVAAISTSGSTTYYADSVKGRFTISRDNAKNTVYLQMNSLKPEDTAVYYCARRGGVRGYYGGRRSKMDYWGQGTQVTVSS	low polyreactivity
QVQLVESGGGLVQAGGSLRLSCAASGYILDRNAMGWYIQAPGKEREFVAVISWGGTRTYYADSVKGRFTISRDNAKNTVYLQMNSLKPEDTAVYYCARYPYYYGYAGRYDYWGQGTQVTVSS	high polyreactivity
QVQLVESGGGLVQAGGSLRLSCAASGSTFFPYAMGWYRQAPGKERELVAGISSDGGTYYADSVKGRFTISRDNAKNTVYLQMNSLKPEDTAVYYCAALQADRDRYPEFDLMDYWGQGTQVTVSS	low polyreactivity
QVQLVESGGGLVQAGGSLRLSCAASGIIFYENAMGWYRQAPGKERELVAAIDGDDGGTDYADSVKGRFTISRDNAKNTVYLQMNSLKPEDTAVYYCAADFGAETGYYYWGQGTQVTVSS	low polyreactivity
QVQLVESGGGLVQAGGSLRLSCAASGSIFRRYAMGWYRQAPGKERELVATITSSVCRTYYADSVKARFTISRDTAKNTVYLQMNSLKPEETAVYFCAVYVGLWGAGGKGDYWGQGTQVTVSS	low polyreactivity
QVQLVESGGGLVQAGGSLRLSCAASGRNFGVYTMGWYRQAPGKERELVAAITSGGNTNYADSVKGRFTISRDNAKNNVYLQMNCLKPEDTAVYYCAARYVGNFYYPGHNYWGQVTQVTVSS	low polyreactivity
QVQLVESGGGLVQAGGSLRLSCAASGITFYYYAMRWYRQAPGKERELVAAISRGGSTYYADSVKGRFTISCDNAKNTVYLQMNSLKPEDTAVYYCNAYTTGYLFGYWGQGTQVTVSS	high polyreactivity
QVQLVESGGGLVQAGGSLRLSCAASGLTFPPNAMGWYRQATGKEREFVAVISSGGGSTYYADSVKVRFTISRDNAKNTVYLQMNSLNPEDTAVYYCATEYQDGETEYYYWGQGTQVTVSS	low polyreactivity
QVQLVDSGGGLVQAGGSLRLSCAASGITFRGYAMGWYRQSPGKERELVATITSSGGSTYYADSVKGRFTISRDNAKNTVYLQMNSLKPEDTAVYYCAAVPYTRYSSSRGYWGQGTQVTVSS	high polyreactivity
QVQLVESGGGLVQAGGSLRLSCAASGIIFRNYAMGWYRQAAGNERAWVAAISWTGDSTYYADSVKGRFTISRDNAKNTVYLQMNSQKPEETAVYYCAAEAYYGLWMDYWGQGTQVTVSS	low polyreactivity
QVQLVESGGGLVQAGGSLRLICAASGYTFKIKGMGWYRQAPGKERELVATIRAGGGNTYYADSVKGRFTISRDNAKNTVYLQMNSLKPEDTAVYYCNARYLRRTMEYWGQGTQVTVSS	high polyreactivity
QVQLVESGGGLVQAGGSLRLSCAASVFIYVKYAMGWYRQAPGKERELVAAITWSTGSTYYADSVKGRFTISRDNAKNTVYLQMNSMKPEDTAVYYCNVDSAWGRRYYSSYPFYYWGQGTQVTVSS	low polyreactivity
